2 molecules from publication PMC3847620, “A valid strategy for precise identifications of transcription factor binding sites in combinatorial regulation using bioinformatic and experimental approaches” can be followed below.

Data set [1] concerns the target T1, MBP-IpMYB1 (Ipomoea purpurea, UniProt Q1JV13 1-272).
T1 sequence: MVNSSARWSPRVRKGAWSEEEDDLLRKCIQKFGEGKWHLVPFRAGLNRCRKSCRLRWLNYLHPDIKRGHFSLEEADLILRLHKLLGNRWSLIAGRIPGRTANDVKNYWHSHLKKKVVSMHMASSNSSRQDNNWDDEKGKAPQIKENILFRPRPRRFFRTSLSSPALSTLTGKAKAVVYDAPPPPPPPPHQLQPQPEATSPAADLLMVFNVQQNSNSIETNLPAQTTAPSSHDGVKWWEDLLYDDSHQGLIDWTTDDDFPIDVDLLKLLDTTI
Put plainly: EMSA; EMSA: 1x = 10 mM Tris-HCl pH 7.5, 50 mM NaCl, 8 mM MgCl2, 1 mM EDTA, 1 mM DTT, 5% glycerol; 20 pmol probe, 2 ug MBP-protein in 10 ul, 25 C, 10 min; 12% native PAGE, 0.25x TBE. The following applies: protein: recombinant; tags: MBP (pMAL-c2G). (A gel shift assay detects complexes by their altered migration in electrophoresis.)

Data set [2] concerns the target T1, MBP-IpMYB1. Briefly: EMSA; favored over probe 1; EMSA: 1x = 10 mM Tris-HCl pH 7.5, 50 mM NaCl, 8 mM MgCl2, 1 mM EDTA, 1 mM DTT, 5% glycerol; 20 pmol probe, 2 ug MBP-protein in 10 ul, 25 C, 10 min; 12% native PAGE, 0.25x TBE. The following applies: protein: recombinant; tags: MBP (pMAL-c2G).

B1: p1x3 (dsDNA)
DNA 1: ATTCCTAGCTACCATACCTAGCTACCATACCTAGCTACCATATTA
DNA 2: TAATATGGTAGCTAGGTATGGTAGCTAGGTATGGTAGCTAGGAAT
For B1, in data set [1], the binding result is “binds”.

B2: MYB1pro probe 3 (dsDNA)
DNA 1: TCTAGCTAGCTAGCTACCAACTGCAC
DNA 2: GTGCAGTTGGTAGCTAGCTAGCTAGA
As to B2, the binding result in data set [2] is on record as “binds”.
